Columns and labels:
HeLa Kyoto [1] = assay: solubility in G1/S (NP-40 vs SDS abundance) (log2 ratio); higher = more soluble; settings: cell cycle stage: G1/S
HeLa Kyoto [2] = assay: melting temperature (median over replicates), in situ; higher = more thermally stable
HeLa Kyoto [3] = assay: solubility change mitosis vs G1/S (difference of NP-40 vs SDS log2 ratios) (log2 ratio difference); higher = more soluble in mitosis
HeLa Kyoto [4] = assay: thermal stability score vs G1/S (z-score of summed log2 fold changes over temperatures); higher = more thermally stable than in G1/S
[5] = cell cycle stage: early G1 (4.5 h after nocodazole release)
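Wherever melting temperature (median over replicates), in situ is given: HeLa Kyoto cells synchronized by double thymidine or nocodazole block, proteins quantified by TMT10plex mass spectrometry, three independent biological replicates.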
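Wherever solubility change mitosis vs G1/S (difference of NP-40 vs SDS log2 ratios) is given: synchronized HeLa Kyoto cells (double thymidine block for G1/S, nocodazole release for mitosis), protein amounts in NP-40 versus SDS lysates quantified by mass spectrometry, three biological replicates.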
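Wherever solubility in G1/S (NP-40 vs SDS abundance) is given: HeLa Kyoto cells arrested at G1/S by double thymidine block, proteins quantified by TMT10plex mass spectrometry in mild NP-40 versus SDS extracts, three biological replicates.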
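Wherever thermal stability score vs G1/S (z-score of summed log2 fold changes over temperatures) is given: synchronized HeLa Kyoto cells, proteins quantified by TMT10plex mass spectrometry, three biological replicates, mitosis taken 0.5 h after nocodazole release, G1/S directly after double thymidine block.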

Sequence	solubility in G1/S (log2) (HeLa Kyoto [1])	melting temperature (HeLa Kyoto [2]; cell cycle stage: G1/S)	melting temperature (HeLa Kyoto [2]; cell cycle stage: mitosis)	solubility change mitosis (log2) (HeLa Kyoto [3])	thermal stability score (HeLa Kyoto [4]; [5])	thermal stability score (HeLa Kyoto [4]; cell cycle stage: mitosis)
MPVGGLLPLFSSPAGGVLGGGLGGGGGRKGSGPAALRLTEKFVLLLVFSAFITLCFGAIFFLPDSSKLLSGVLFHSSPALQPAADHKPGPGARAEDAAEGRARRREEGAPGDPEAALEDNLARIRENHERALREAKETLQKLPEEIQRDILLEKKKVAQDQLRDKAPFRGLPPVDFVPPIGVESREPADAAIREKRAKIKEMMKHAWNNYKGYAWGLNELKPISKGGHSSSLFGNIKGATIVDALDTLFIMEMKHEFEEAKSWVEENLDFNVNAEISVFEVNIRFVGGLLSAYYLSGEEIFRKKAVELGVKLLPAFHTPSGIPWALLNMKSGIGRNWPWASGGSSILAEFGTLHLEFMHLSHLSGNPIFAEKVMNIRTVLNKLEKPQGLYPNYLNPSSGQWGQHHVSVGGLGDSFYEYLLKAWLMSDKTDLEAKKMYFDAVQAIETHLIRKSSSGLTYIAEWKGGLLEHKMGHLTCFAGGMFALGADAAPEGMAQHYLELGAEIARTCHESYNRTFMKLGPEAFRFDGGVEAIATRQNEKYYILRPEVMETYMYMWRLTHDPKYRKWAWEAVEALENHCRVNGGYSGLRDVYLLHESYDDVQQSFFLAETLKYLYLIFSDDDLLPLEHWIFNSEAHLLPILPKDKKEVEIREE [MAN1A1]	0.133	55 °C	54.7 °C	-0.0318	1.56	0.0924
MPVRGDRGFPPRRELSGWLRAPGMEELIWEQYTVTLQKDSKRGFGIAVSGGRDNPHFENGETSIVISDVLPGGPADGLLQENDRVVMVNGTPMEDVLHSFAVQQLRKSGKVAAIVVKRPRKVQVAALQASPPLDQDDRAFEVMDEFDGRSFRSGYSERSRLNSHGGRSRSWEDSPERGRPHERARSRERDLSRDRSRGRSLERGLDQDHARTRDRSRGRSLERGLDHDFGPSRDRDRDRSRGRSIDQDYERAYHRAYDPDYERAYSPEYRRGARHDARSRGPRSRSREHPHSRSPSPEPRGRPGPIGVLLMKSRANEEYGLRLGSQIFVKEMTRTGLATKDGNLHEGDIILKINGTVTENMSLTDARKLIEKSRGKLQLVVLRDSQQTLINIPSLNDSDSEIEDISEIESNRSFSPEERRHQYSDYDYHSSSEKLKERPSSREDTPSRLSRMGATPTPFKSTGDIAGTVVPETNKEPRYQEDPPAPQPKAAPRTFLRPSPEDEAIYGPNTKMVRFKKGDSVGLRLAGGNDVGIFVAGIQEGTSAEQEGLQEGDQILKVNTQDFRGLVREDAVLYLLEIPKGEMVTILAQSRADVYRDILACGRGDSFFIRSHFECEKETPQSLAFTRGEVFRVVDTLYDGKLGNWLAVRIGNELEKGLIPNKSRAEQMASVQNAQRDNAGDRADFWRMRGQRSGVKKNLRKSREDLTAVVSVSTKFPAYERVLLREAGFKRPVVLFGPIADIAMEKLANELPDWFQTAKTEPKDAGSEKSTGVVRLNTVRQIIEQDKHALLDVTPKAVDLLNYTQWFPIVIFFNPDSRQGVKTMRQRLNPTSNKSSRKLFDQANKLKKTCAHLFTATINLNSANDSWFGSLKDTIQHQQGEAVWVSEGKMEGMDDDPEDRMSYLTAMGADYLSCDSRLISDFEDTDGEGGAYTDNELDEPAEEPLVSSITRSSEPVQHEESIRKPSPEPRAQMRRAASSDQLRDNSPPPAFKPEPPKAKTQNKEESYDFSKSYEYKSNPSAVAGNETPGASTKGYPPPVAAKPTFGRSILKPSTPIPPQEGEEVGESSEEQDNAPKSVLGKVKIFEKMDHKARLQRMQELQEAQNARIEIAQKHPDIYAVPIKTHKPDPGTPQHTSSRPPEPQKAPSRPYQDTRGSYGSDAEEEEYRQQLSEHSKRGYYGQSARYRDTEL [TJP2]	-0.246	48.1 °C	49.2 °C	0.000921	1	2.91
MPYVDRQNRICGFLDIEENENSGKFLRRYFILDTREDSFVWYMDNPQNLPSGSSRVGAIKLTYISKVSDATKLRPKAEFCFVMNAGMRKYFLQANDQQDLVEWVNVLNKAIKITVPKQSDSQPNSDNLSRHGECGKKQVSYRTDIVGGVPIITPTQKEEVNECGESIDRNNLKRSQSHLPYFTPKPPQDSAVIKAGYCVKQGAVMKNWKRRYFQLDENTIGYFKSELEKEPLRVIPLKEVHKVQECKQSDIMMRDNLFEIVTTSRTFYVQADSPEEMHSWIKAVSGAIVAQRGPGRSASSEHPPGPSESKHAFRPTNAATATSHSTASRSNSLVSTFTMEKRGFYESLAKVKPGNFKVQTVSPREPASKVTEQALLRPQSKNGPQEKDCDLVDLDDASLPVSDV [PLEKHA1]	0.0285	49.8 °C	49 °C	-0.0272	0.0968	0.182
MQDPNADTEWNDILRKKGILPPKESLKELEEEAEEEQRILQQSVVKTYEDMTLEELEDHEDEFNEEDERAIEMYRRRRLAEWKATKLKNKFGEVLEISGKDYVQEVTKAGEGLWVILHLYKQGIPLCALINQHLSGLARKFPDVKFIKAISTTCIPNYPDRNLPTIFVYLEGDIKAQFIGPLVFGGMNLTRDELEWKLSESGAIMTDLEENPKKPIEDVLLSSVRRSVLMKRDSDSEGD [PDCL3]	0.617	54.2 °C	54.2 °C	-0.135	-0.23	-0.106
MQDTGSVVPLHWFGFGYAALVASGGIIGYVKAGSVPSLAAGLLFGSLAGLGAYQLSQDPRNVWVFLATSGTLAGIMGMRFYHSGKFMPAGLIAGASLLMVAKVGVSMFNRPH [TMEM14C]	0.356		54.3 °C	0.206	-3.8e-18	-4.49e-20
MQGARAPRDQGRSPGRMSALGRSSVILLTYVLAATELTCLFMQFSIVPYLSRKLGLDSIAFGYLQTTFGVLQLLGGPVFGRFADQRGARAALTLSFLAALALYLLLAAASSPALPGVYLLFASRLPGALMHTLPAAQMVITDLSAPEERPAALGRLGLCFGVGVILGSLLGGTLVSAYGIQCPAILAALATLLGAVLSFTCIPASTKGAKTDAQAPLPGGPRASVFDLKAIASLLRLPDVPRIFLVKVASNCPTGLFMVMFSIISMDFFQLEAAQAGYLMSFFGLLQMVTQGLVIGQLSSHFSEEVLLRASVLVFIVVGLAMAWMSSVFHFCLLVPGLVFSLCTLNVVTDSMLIKAVSTSDTGTMLGLCASVQPLLRTLGPTVGGLLYRSFGVPVFGHVQVAINTLVLLVLWRKPMPQRKDKVR [SLC22A18]	-0.019	54.2 °C		-0.181	0.106	-0.446
MQGGEPVSTMKVSESEGKLEGQATAVTPNKNSSCGGGISSSSSSRGGSAKGWQYSDHMENVYGYLMKYTNLVTGWQYRFFVLNNEAGLLEYFVNEQSRNQKPRGTLQLAGAVISPSDEDSHTFTVNAASGEQYKLRATDAKERQHWVSRLQICTQHHTEAIGKNNPPLKSRSFSLASSSNSPISQRRPSQNAISFFNVGHSKLQSLSKRTNLPPDHLVEVREMMSHAEGQQRDLIRRIECLPTSGHLSSLDQDLLMLKATSMATMNCLNDCFHILQLQHASHQKGSLPSGTTIEWLEPKISLSNHYKNGADQPFATDQSKPVAVPEEQPVAESGLLAREPEEINADDEIEDTCDHKEDDLGAVEEQRSVILHLLSQLKLGMDLTRVVLPTFILEKRSLLEMYADFMSHPDLFIAITNGATAEDRMIRFVEYYLTSFHEGRKGAIAKKPYNPIIGETFHCSWKMPKSEVASSVFSSSSTQGVTNHAPLSGESLTQVGSDCYTVRFVAEQVSHHPPVSGFYAECTERKMCVNAHVWTKSKFLGMSIGVTMVGEGILSLLEHGEEYTFSLPCAYARSILTVPWVELGGKVSVNCAKTGYSASITFHTKPFYGGKLHRVTAEVKHNITNTVVCRVQGEWNSVLEFTYSNGETKYVDLTKLAVTKKRVRPLEKQDPFESRRLWKNVTDSLRESEIDKATEHKHTLEERQRTEERHRTETGTPWKTKYFIKEGDGWVYHKPLWKIIPTTQPAE [OSBPL11]	-0.139	50 °C	50.4 °C	-0.0415	0.575	1.25
MQGPPLLTAAHLLCVCTAALAVAPGPRFLVTAPGIIRPGGNVTIGVELLEHCPSQVTVKAELLKTASNLTVSVLEAEGVFEKGSFKTLTLPSLPLNSADEIYELRVTGRTQDEILFSNSTRLSFETKRISVFIQTDKALYKPKQEVKFRIVTLFSDFKPYKTSLNILIKDPKSNLIQQWLSQQSDLGVISKTFQLSSHPILGDWSIQVQVNDQTYYQSFQVSEYVLPKFEVTLQTPLYCSMNSKHLNGTITAKYTYGKPVKGDVTLTFLPLSFWGKKKNITKTFKINGSANFSFNDEEMKNVMDSSNGLSEYLDLSSPGPVEILTTVTESVTGISRNVSTNVFFKQHDYIIEFFDYTTVLKPSLNFTATVKVTRADGNQLTLEERRNNVVITVTQRNYTEYWSGSNSGNQKMEAVQKINYTVPQSGTFKIEFPILEDSSELQLKAYFLGSKSSMAVHSLFKSPSKTYIQLKTRDENIKVGSPFELVVSGNKRLKELSYMVVSRGQLVAVGKQNSTMFSLTPENSWTPKACVIVYYIEDDGEIISDVLKIPVQLVFKNKIKLYWSKVKAEPSEKVSLRISVTQPDSIVGIVAVDKSVNLMNASNDITMENVVHELELYNTGYYLGMFMNSFAVFQECGLWVLTDANLTKDYIDGVYDNAEYAERFMEENEGHIVDIHDFSLGSSPHVRKHFPETWIWLDTNMGYRIYQEFEVTVPDSITSWVATGFVISEDLGLGLTTTPVELQAFQPFFIFLNLPYSVIRGEEFALEITIFNYLKDATEVKVIIEKSDKFDILMTSNEINATGHQQTLLVPSEDGATVLFPIRPTHLGEIPITVTALSPTASDAVTQMILVKAEGIEKSYSQSILLDLTDNRLQSTLKTLSFSFPPNTVTGSERVQITAIGDVLGPSINGLASLIRMPYGCGEQNMINFAPNIYILDYLTKKKQLTDNLKEKALSFMRQGYQRELLYQREDGSFSAFGNYDPSGSTWLSAFVLRCFLEADPYIDIDQNVLHRTYTWLKGHQKSNGEFWDPGRVIHSELQGGNKSPVTLTAYIVTSLLGYRKYQPNIDVQESIHFLESEFSRGISDNYTLALITYALSSVGSPKAKEALNMLTWRAEQEGGMQFWVSSESKLSDSWQPRSLDIEVAAYALLSHFLQFQTSEGIPIMRWLSRQRNSLGGFASTQDTTVALKALSEFAALMNTERTNIQVTVTGPSSPSPVKFLIDTHNRLLLQTAELAVVQPTAVNISANGFGFAICQLNVVYNVKASGSSRRRRSIQNQEAFDLDVAVKENKDDLNHVDLNVCTSFSGPGRSGMALMEVNLLSGFMVPSEAISLSETVKKVEYDHGKLNLYLDSVNETQFCVNIPAVRNFKVSNTQDASVSIVDYYEPRRQAVRSYNSEVKLSSCDLCSDVQGCRPCEDGASGSHHHSSVIFIFCFKLLYFMELWL [CD109]	-0.179	57.6 °C	63.2 °C	-0.257	-0.942	1.58
